Results as given in the nanobody polyreactivity screen of Harvey et al. (2022).

assay: yeast display, Sf9 membrane polyspecificity reagent, FACS + sequencing; frameworks hold sequencing errors
How it was run: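 Genes from sorted yeast were amplified by colony PCR, read by MiSeq 2 × 250 sequencing and filtered on CDR length. These cells carried a synthetic nanobody library in Saccharomyces cerevisiae BJ5465 and were sorted by FACS into low and high (top ~1%) gates on anti-HA and streptavidin fluorescence. Polyreactivity is labelled according to the gate of origin.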

Row | Sequence | polyreactivity (PSR sort gate)
1 | QVQLVESGGGIVQAGGSLRLSSAASGRIFYRYAMGWYRQAPGKERELVASITRSGITHYADSVNGRFTISRDNAKNTVYLQMNSLKPEDTAVYYCNKRPWHRSSRPFYYWGQGTQVTVSS | high polyreactivity
2 | QVQLVESGGGIVQAGGSLRLTCAASGRILGSNSIAWYRHAPGKERELVAAITSTGSTDYADSVKGRFTISRDNAKKTVYLQMNSLKPEDTAVYYCAADTSPYQDDYWGQGTQVTVSS | low polyreactivity
3 | QVQLVESGGGIVQAGGSLSLSCAASGFNFGIYAMGWYRQAPGKEREFVAAITGSAGSTYYADSVKGRFTISLDNAKNTVYLQMNSLKPEDTAVYYCAAVLRTHRYGGYNYWGQGTQVTVSS | low polyreactivity
4 | QVQLVESGGGIVQAGVSLRLSCAASGSTFRDYAMGWSRPAPGKERELVAAISNSGGRTYYADSVKGRFTISRDNAKNTVYLQMYSLKPEDTAVYYCNAGRQTKWGQGTQVTVSS | high polyreactivity
5 | QVQLVESGGGIVQEGGSLRLSCAASGRIFGTNAMGWYRQAPGKERELVATITRGGGNTYYADSVKGRFTISRDNAKNTVYLQMKSLKPEDTAVYYCAAKFHRFAWYSHYDYWGQGTQVTVSS | low polyreactivity
6 | QVQLVESGGGIVQEGGSLRLSCAASGSTFRDYAMGWYRQAPGKERELVAAISSRGATTYYADSVKGRFTISRDNAKNTVYLQMNSLKPEDTAVYYCNARQRRNPGGYGYWGQVTQVTVSS | high polyreactivity
7 | QVQLVESGGGIVQPGGSLRLSCAASGSIFGYNAIGWYRQAPGKERELVAAISTSSGSTYYADSVKGRFTISRDNAKNTVFLQMNSLKPEDTAVYYCAARDRPFGRYDYWGQATQVTVSS | low polyreactivity
8 | QVQLVESGGGKVQAGGSLRLSCAASGFILSRNAMGWYRQAPGKERELVAAISRSGTRTYYADSVKGRFTISRDNEQNTVYLQMNSLKPEDTAVYYCARVSKRTWTGYYYWGQGTQVTVSS | high polyreactivity
9 | QVQLVESGGGKVQAGGSLRLSCAASGRIFSVYTMGWYSQAPGKERELVAAISSGASTNYADSVKGRFTISRDNAKNTVYLQMNSLKPEDTAVEYCNAQWYLRLGASKTWVDVDYWGQGTQVTVSS | low polyreactivity
10 | QVQLVESGGGKVQAGGSLRLSCAPSGSIFFSYAMGWYRQAPGKERELVAAISGSGTSTYYADSVKGRFTISRDNAKNTVYLQMNSLKPEDTAVYYCPTDGGAAWGRYYWDYGYWGQGTQVTVSS | low polyreactivity
11 | QVQLVESGGGKVQAGGSLSLSCAASGSTFVVNAMGWYRQAPGKERELVAAIDGSDGSTYYADSEKGRFTISRDNAKNTVYLQMNSLKPEDTAVYYCAAEVLGRPDVENDYWGQGTKVTVSS | low polyreactivity
12 | QVQLVESGGGLAQAGGSLRLSCAASGNILRINGMGWYRQAPGKERELVASITRSGSTYYADSVKGRFTISRDNAKNTVYLQMNSLKPEDTAVYYCAADSRRYGVRFDYWGQGTQVTVSS | low polyreactivity
13 | QVQLVESGGGLAQAGGSLRLSCAASGSTFNSNAMGWSRQAPGKERELVAAISRSGGRTYYADSVKGRFTISRDIAKNTVYLQMNSLKPEDTAVYYCAAGCQYISRRGYDYWGQGTQVTVSS | high polyreactivity
14 | QVQLVESGGGLDLAGGSLRLSCAASGSTFWRYAMGWYCQAPGKERELVAAISYTGTSTYSADSVKGRFTISRDNAKNTVYLQMNSLKPEDTAVYYCAAVFVGLVTGYDYSWGQGTQVNVSS | low polyreactivity
15 | QVQLVESGGGLDQAAGSLRLSCAASGSIFDAYMRWYIQAPGKERELVAGITRSGGSTYYADSVKGRFTISRDNAKIKVYLQMNSLKPEDTAVDFCAADYSSDGDYWGLGTQVTVSS | low polyreactivity
16 | QVQLVESGGGLDQAGGCLRLSCAASGRIFKYNAMGWYRQAPGTERELVAAISWNGDSTYYADSVKGRFTISRDIAKYTVYLQMNRLKPEDTAVYYCAVTGDYDMEYWGQGTQVTVSS | low polyreactivity
17 | QVQLVESGGGLDQAGGRLRLSCAASGSIFSIYAMGRYRQAPGKERELVAAISSGGSTYADSVKGRFTISRDNAKNTVYLQMNSLKPEDTAVYYCAADRRGYRGYDYWGQGTQVTVSS | low polyreactivity
18 | QVQLVESGGGLDQAGGRLRLSCPASGRIFQANAMGRYRQAPGKERELVAAITNRGGSTYADSVKGRFTISRDNAKNTVYLQMNSLKPEDTAVYYCAADVSRYVQRDNYWGQGTQVTVSS | low polyreactivity
19 | QVQLVESGGGLDQAGGRLRLSSAASGTTFAVNAMGWYRQAPGKERELVAAITSGGSTKYADSVKGRFTISRDNAKYSVYFQMNSLKREDSAVYYIPDSKLWALGWKFYYWGQGTQVTVSS | low polyreactivity
20 | QVQLVESGGGLDQAGGSHRLSCAASGFTFSGYAMGWYRQAPGTESELVAAMTRRGGSTYYADSVKGRFTISRDNAKNTVYLHLNSLKPEDTAVYYCAADSGYPWELDYWGQGTQVTVSS | low polyreactivity
21 | QVQLVESGGGLDQAGGSHRLSCAASGRTFPGNAMGWYRQAPGKERELVAAISWSGSRTYYADSLKGRFTISRDNAKNTVYLHMTRMKPEDTAVYYCNVVVKGAWEYYPYDYWGQGTEVTVSS | high polyreactivity
22 | QVQLVESGGGLDQAGGSLRISCAASGSTLLGNAMGWYRQAPGKERELVAAISTSGDSTNYADSVKGRFTISRDNAKNTVYLQMNSLKPEDTAVYYCNAGGYLISDVDRVGYWGQGTQVTVSS | low polyreactivity

Row | Sequence | polyreactivity (PSR sort gate)
23 | QVQLVESGGGLDQAGGSLRLICAASGIIFASNAMGWYRQAPGKERELVATITGSVAGTYYADSVKGRFTISRDNAKPTVYLQMNSLKPEDTAVYDCAAKRGWNVAGYDYWGQRTQVTVSS | low polyreactivity
24 | QVQLVESGGGLDQAGGSLRLICAASGLTFPYYARGWSIQAPGKEMEVVAGITDDGGDTYYADSVKGRLTISRDYAKNTVYLQMNSLKPEDTAVYFCAADGWFQGWFGYGYWGQGTQVTVSS | high polyreactivity
25 | QVQLVESGGGLDQAGGSLRLICAASGRTYDTNAMGWYRQAPGKEREFVAAINTGGNTYYADSVKGRFTISRDNAKNTVYLQMNSLIPEDTAVYYSAAYYYYFYHKVIWYELDYWGQGTQVTLSS | low polyreactivity
26 | QVQLVESGGGLDQAGGSLRLSCAASGFIFIQNDMGWYRQAPGKEREFVASISKDGGRTYYADSVKGRFTISRDNAKNTVYLQMNSLKPEDTAVVYCNTYPRGNWGNFVEQDYDYWGHGTQVTVSS | low polyreactivity
27 | QVQLVESGGGLDQAGGSLRLSCAASGFIFITYEMGWYRQAPGKQMELVAVITSGGTTNYADSVKGRFTISRDNAKNTVYLQMNSLKPEDTAVYYCAAEDYVIGDSGYDYWGQGTQVTVSS | low polyreactivity
28 | QVQLVESGGGLDQAGGSLRLSCAASGFIFNKYALGRSRQAPGTEREFVATIRRDGSTNYADSVKGRFTISRDNAKNTVYLQMNSLKPEDTAVYSCAKRPWYHADWWDDHWGQGTQVTVSS | high polyreactivity
29 | QVQLVESGGGLDQAGGSLRLSCAASGFIFRAYAMGLYRQAPGKERELVAAISWGGGSTYYADSVKGRFTISRDNAKNTVYLQMNSLKPEDTAVYYCAAEYEAYAYEYWGQGTQVTVSS | high polyreactivity
30 | QVQLVESGGGLDQAGGSLRLSCAASGFIFWRNTMGWYRPAPGKERELVAVITRGGSTYYADSVKGRFTISRDTAKNTVYLQMNSLKPEDTAVYNSAARNDYFKTFSGYDYWGQGTQVTVSS | low polyreactivity
31 | QVQLVESGGGLDQAGGSLRLSCAASGFIFYDYDMGWYRQAPGKERELVAAISDGGSTNYADSVKGRFTISRDNAKNTVYFQRNSLKPEDTAVYYCAKDGFVYYDYFQYIEYDYWGQGTQVTVSS | low polyreactivity
32 | QVQLVESGGGLDQAGGSLRLSCAASGFTFWRYAMGWYRQAPGKERELVAAISWSGGSTYYADSVKGRFTISRDNAKNTVYLQMNSLKPEDTAVYYCTAQYGSRSYRYGYWGQGTQVTVSS | high polyreactivity
33 | QVQLVESGGGLDQAGGSLRLSCAASGFTFYPNAMGWYRQAPGKERELVAAINSGGSTYYADSVKGRFTISRDNAKNTVYLQMNSLKPEDTAVYYCAAYGKRGAVAFYYWGQGTQVTVSS | high polyreactivity
34 | QVQLVESGGGLDQAGGSLRLSCAASGFTFYPYAMGWYRQAPGKERELVASITSAGGTNYADSVKGRFTISRDNAKNTVYVQLNSLKPEDTAVYYCAAKYRSRGPDYYFNSDYWGQGTQVTVSS | low polyreactivity
35 | QVQLVESGGGLDQAGGSLRLSCAASGFTLDYYAMGWYRQAPGKERELVAAISWSGGRTYYADSVKGRFTISRDNAKNTVYLQMNSLKPEDTAVYYCNASPYGRKYGILADGDYWGQGTQVTVSS | high polyreactivity
36 | QVQLVESGGGLDQAGGSLRLSCAASGFTSYLYTMGWYRQAPGKERELVAAISNSGGNTYYADSLKGRFTISRDIAKKTVYLQMNSLKPEDTAVYYCAAVRRISRYDYWGQGTQVTVSS | high polyreactivity
37 | QVQLVESGGGLDQAGGSLRLSCAASGIIFWYYAMGWYRQAPGKEMELVAAINWNGDSTHYADSVKGRFTISRDNAKNTVYLQMNILKPEDTAVYYCAARTYTLRGVYFSGYNYWGQATQVTVSS | low polyreactivity
38 | QVQLVESGGGLDQAGGSLRLSCAASGISFIIYVMGWYRQAPGKERELVAAISSTGSTYYADSVKGRFTISRDNAKNTVYLQMNSQKPEDTAVYYCAKRKFTARQRYNYWGQGTQVTVSS | high polyreactivity
39 | QVQLVESGGGLDQAGGSLRLSCAASGITFLDNDMGWYRQAPGKERELVAAINSGVSTYYADSVKGRFTISLDNAKNTVYLQMNSLKPEDTAVYYCAADRPDVAGDYWGQGTQVTVSS | low polyreactivity
40 | QVQLVESGGGLDQAGGSLRLSCAASGITFPGYAMGWYRQAPGKERELVAAIDWSGDGTYYADSVKGRFTISRDNAKNTVYLQMNSLKPEDTAVYYCAKDNYPNHSTVLAVIYDYWGQGTQVTVSS | low polyreactivity
41 | QVQLVESGGGLDQAGGSLRLSCAASGITFYDYAMGWYRQAPGKEREFVASITSSGGSTYYADSVKGRFTISRDNAKTTVYLQMNSLKPQDPAVYYCAARGYNPYGRKVGYWGQGTQVTVSS | high polyreactivity
42 | QVQLVESGGGLDQAGGSLRLSCAASGLIFIQNAMGWYRQAPGKEREFVAAISVSGRTYYADSVKGRFTISRDNAKNTVYLQMNSLKPEDTAVYYCAARSRSWRQRYGDFDYWGQGTQVTVSS | low polyreactivity
43 | QVQLVESGGGLDQAGGSLRLSCAASGLIFSQYTMGWYRQAPGKERELVASITWRGGSTYADSVKGRFTISRDNAKNTVYLQMNSLKPEDTAVYYCAADYKPSYYLRQSYGYWGQGTQVTVSS | low polyreactivity
